Consider one molecule from patent US10058586B2, “Use of human small leucine zipper protein in adipocyte differentiation procedure” (Korea University Research and Business Foundation, priority 2013, dated 2018).

For one test, the system named is PGC1α. Briefly: GST pull-down of GST-PPARγ2 with anti-PGC1α immunoblot in 293T cells. The following applies: 10 nM RZD for 24 hours. In kind it is binding. As for the experimental part: Therefore, in order to understand a regulation mechanism of sLZIP in the PPARγ2 transcriptional activity by binding to the FABP4 promoter region, an effect of sLZIP on the interaction between PPARγ2 and HDAC3 was examined. For this purpose, 293T cells were transfected with GST-HDAC3, Myc-PPARγ2 and Flag-sLZIP, and were treated or not treated with 10 nM of RZD for 24 hours. Cell lysates were subjected to GST pull-down analysis using a glutathione 4B bead, and a protein complex was analyzed in SDS-PAGE, and then immunoblotted with anti-GST, anti-Myc and anti-Flag antibodies (FIG. 6A). GST-HDAC3, GST-PPARγ2, Myc-PPARγ2, Flag-sLZIP and Ha-UB were expressed in the 293T cells, and the cells were treated with 10 nM of RZD for 24 hours. Cell lysates were subjected to GST pull-down analysis (FIG. 6B). GST-PPARγ2 and Flag-sLZIP were expressed in the 293T cells and treated with 10 nM of RZD for 24 hours. Cell lysates were subjected to GST pull-down analysis, and a protein complex was analyzed in SDS-PAGE, and then immunoblotted with anti-PGC1α, anti-GST and anti-Flag antibodies (FIG. 6C).

In another test the test system is HDAC3. Briefly: GST pull-down of GST-HDAC3 and Flag-sLZIP in 293T cells. Format: binding. As for the experimental part: 293T cells were obtained and washed with cold PBS. The cells were re-suspended in an IP lysis buffer [25 mM of Tris-HCl (pH 7.4), 150 mM of NaCl, 1 mM of EDTA, 1% NP-40 and 5% glycerol, and a protease inhibitor]. A suspension was centrifuged at 16,000×g for 20 minutes at 4° C. Supernatants were collected and incubated with 0.5 μg of appropriate antibodies and 25 μl of protein A/G-agarose or a GST Sepharose 4B bead for 24 hours at 4° C. A protein complex was centrifuged at 1,000×g with a cold IP lysis buffer for 1 minute and washed five times. The final pellet was re-suspended in 50 μl of an SDS-sample buffer containing 5% β-mercaptoethanol and heated for 10 minutes at 100° C. […] Co-precipitated proteins were detected according to western blotting using specific antibodies.
For this purpose, 293T cells were transiently transfected with PPARγ2 (0.5 μg), (3-galactosidase (0.1 μg), FABP4-Luc reporter genes (0.2 μg) and sLZIP (0.1 μg). After the transfection, the cells were stimulated with or without 10 nM of RZD and 10 nM of TSA (FIG. 4A). A promoter activity was measured according to luciferase analysis. In the 293T cells, FABP4-Luc reporter genes, sLZIP, PPAR, β-galactosidase, and 100 nM of si-RNAs and HDAC1, 2, 3 and 8 for a control group were expressed. After the transfection, the cells were stimulated with or without 10 nM of RZD, and a promoter activity was measured (FIG. 4B). […]

B1: sLZIP: human small leucine-zipper protein, isoform of LZIP, 354 amino acids, no transmembrane domain; GenBank FJ263669, SEQ ID NO: 1 (protein, listed as Homo sapiens)
chain: MELELDAGDQDLLAFLLEESGDLGTAPDEAVRAPLDWALPLSEVPSDWEVDDLLCSLLSPPASLNILSSSNPCLVHHDHTYSLPRETVSMDLESESCRKEGTQMTPQHMEELAEQEIARLVLTDEEKSLLEKEGLILPETLPLTKTEEQILKRVRRKIRNKRSAQESRRKKKVYVGGLESRVLKYTAQNMELQNKVQLLEEQNLSLLDQLRKLQAMVIEISNKTSSSSMYSSDTRGSLPAEHGVLSRQLRALPSEDPYQLELPALQSEVPKDSTHQWLDGSDCVLQAPGNTSCLLHYMPQAPSAEPPLEWPFPDLFSEPLCRGPILPLQANLTRKGGWLPTGSPSVILQDRYSG
For B1, in the test with PGC1α, the “recruitment of coactivator PGC-1α to PPARγ2” value was “inhibited the complementing of a coactivator PGC-la for PPARγ2”. Further, the results for the “interaction with HDAC3 (GST pull-down)” value with HDAC3 (10 nM RZD for 24 hours) and in the test on HDAC3 (no RZD) were “HDAC3 was remained as being interacted with sLZIP” and “interacted with HDAC3 in a PPARγ2 corepressor complex”, respectively.
